According to publication PMC3708822:

Experiments:
[1] = biological target: GST-RT (HIV-1 (NL4-3)); assay: pull-down; 5 ug GST-tagged proteins on glutathione sepharose 4B beads incubated 1 hour at 4°C with normalized clarified bacterial lysates of 6His-IN in 20 mM HEPES-KOH pH 8.0, 5 mM DTT, 0.1% IGEPAL; washes with 200 mM NaCl, 0.5% IGEPAL; Western blot, densitometry relative to WT
[2] = biological target: GST-INI1 (UniProt Q12824); assay: pull-down; in vitro binding of His6-IN with GST-INI1; data not shown
[3] = biological target: GST-SAP18 (UniProt O00422); assay: pull-down; 5 ug GST-tagged proteins on glutathione sepharose 4B beads incubated 1 hour at 4°C with normalized clarified bacterial lysates of 6His-IN in 20 mM HEPES-KOH pH 8.0, 5 mM DTT, 0.1% IGEPAL; washes with 200 mM NaCl, 0.5% IGEPAL; Western blot, densitometry relative to WT
[4] = biological target: GST-SAP18 (UniProt O00422); assay: GST pull-down, Western blot quantitation; details: 5μg of GST-tagged proteins were used for each pull-down reaction; parent: est. 1.0; read off a plot
[5] = biological target: GST-INI1 (UniProt Q12824); assay: pull-down; 5 ug GST-INI1 on glutathione sepharose 4B beads incubated 1 hour at 4°C with clarified 293 T whole cell lysates normalized for YFP-IN levels; Western blot, densitometry, binding relative to YFP-WT

GST-SAP18, sequence (O00422 whole entry): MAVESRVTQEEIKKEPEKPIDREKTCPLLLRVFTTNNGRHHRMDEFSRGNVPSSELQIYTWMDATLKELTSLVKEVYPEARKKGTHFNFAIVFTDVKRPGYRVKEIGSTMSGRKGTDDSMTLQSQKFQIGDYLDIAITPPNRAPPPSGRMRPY
GST-INI1, sequence (Q12824 whole entry): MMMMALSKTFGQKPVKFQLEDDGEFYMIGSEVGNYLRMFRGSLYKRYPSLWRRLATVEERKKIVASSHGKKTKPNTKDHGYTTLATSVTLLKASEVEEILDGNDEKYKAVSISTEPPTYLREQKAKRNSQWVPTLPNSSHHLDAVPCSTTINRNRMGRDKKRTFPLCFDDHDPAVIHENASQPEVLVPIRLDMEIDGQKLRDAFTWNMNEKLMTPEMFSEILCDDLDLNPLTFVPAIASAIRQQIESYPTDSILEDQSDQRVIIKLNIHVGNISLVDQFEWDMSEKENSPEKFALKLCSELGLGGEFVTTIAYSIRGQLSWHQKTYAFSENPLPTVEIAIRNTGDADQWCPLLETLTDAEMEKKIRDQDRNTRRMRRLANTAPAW

Row | Substance | ratio to parent [4] | % binding to INI1 relative to wild type [5] [%] | other results
1 | His6-tagged IN D202G (natural protein) | – | – | % RT binding compared to WT [1]: 80%
2 | His6-tagged IN K111E (natural protein) | – | – | % binding compared to His6-WT [2]: 60%
3 | His6-tagged IN Q137R (natural protein) | – | – | % RT binding compared to WT [1]: 45%; fold decrease in binding relative to WT [3]: 4 fold
4 | His6-tagged WT IN D202G | 0.84 | – | –
5 | His6-tagged WT IN K71R | 1.1 | – | –
6 | His6-tagged WT IN K111E | 1.3 | – | –
7 | His6-tagged WT IN S147G | 1 | – | –
8 | YFP-IN D202G (natural protein) | – | 32 | –
9 | YFP-IN H12Y (natural protein) | – | 20.6 | –
10 | YFP-IN K71R (natural protein) | – | 46 | –
11 | YFP-IN Q137R (natural protein) | – | 10 | –
12 | YFP-IN S147G (natural protein) | – | 77 | –
13 | YFP-WT IN (natural protein) | – | 100 | –
